The target in the experiment is human thrombopoietin receptor (human c-Mpl) (human) (UniProt P40238). Description: cell-based or functional assay.

One substance from patent US20100004429A1 can be followed below.

“PEG-rHuMGDF (pegylated recombinant human megakaryocyte proliferation and development factor) (from UniProt P40225 22-184) (ligand)”: the UT7/TPO (Max) came to 100%.
